Where two headings read alike, the source gives them in different places.
What was measured:
[1] = target: Populus tremula × P. tremuloides glutathione transferase Phi 1 (PttGSTF1) (Populus tremula × P. tremuloides); assay: SEC; calibrated Superdex 200 10/300, 30 mM Tris-HCl pH 8.0, 200 mM NaCl, 100 μg of purified protein injected, 0.5 ml/min; standards 6500-700,000 Da
PttGSTF1 [2] = target: T1, PttGSTF1 (Populus trichocarpa, UniProt A9PHH6); assay: spectrophotometric GSH-conjugation assay ([…] nm), Michaelis-Menten fit; type: biochemical; settings: apparent Km; 1 mM GSH; 100 mM sodium phosphate pH 7.5; 25°C; read-out: PNP-butyrate
T1 construct: initiator Met cleaved, residues Ala2-Ala215; 24192 Da (WT); homodimer; differs from the P. trichocarpa GSTF1 by Val33 (Ile) and Arg86 (Lys)
T1 sequence (A9PHH6 entry or part of it): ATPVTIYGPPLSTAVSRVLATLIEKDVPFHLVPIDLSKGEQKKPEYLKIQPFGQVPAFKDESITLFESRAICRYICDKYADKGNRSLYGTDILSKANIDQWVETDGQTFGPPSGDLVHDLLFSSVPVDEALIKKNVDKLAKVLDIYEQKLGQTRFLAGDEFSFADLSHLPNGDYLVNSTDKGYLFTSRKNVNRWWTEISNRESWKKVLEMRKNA

PttGSTF1 [3] = target: T2, PttGSTF1 (Populus trichocarpa, UniProt A9PHH6, S13A, form not given); assay: as above; type: biochemical; settings: apparent Km; 1 mM GSH; 100 mM sodium phosphate pH 7.5; 25°C; read-out: PNP-butyrate
T2 construct: initiator Met cleaved, residues Ala2-Ala215; 24192 Da (WT); homodimer; differs from the P. trichocarpa GSTF1 by Val33 (Ile) and Arg86 (Lys)
T2 sequence (A9PHH6 entry or part of it S13A, form open): as the sequence (A9PHH6 entry or part of it) above, with S12A counted along it

[4] = target: PttGSTF1 S13C (Populus tremula × P. tremuloides); assay: SEC; calibrated Superdex 200 10/300, 30 mM Tris-HCl pH 8.0, 200 mM NaCl, 100 μg of purified protein injected, 0.5 ml/min; standards 6500-700,000 Da
PttGSTF1 [5] = target: T1, PttGSTF1; assay: spectrophotometric GSH-conjugation assay ([…] nm), Michaelis-Menten fit; type: biochemical; settings: apparent Km; 0.7 mM GSH; 100 mM phosphate pH 6.5; 25°C; read-out: HNE
[6] = target: PttGSTF1 S13A (Populus tremula × P. tremuloides); assay: SEC; calibrated Superdex 200 10/300, 30 mM Tris-HCl pH 8.0, 200 mM NaCl, 100 μg of purified protein injected, 0.5 ml/min; standards 6500-700,000 Da

Populus tremula × P. tremuloides glutathione transferase Phi 1 (PttGSTF1) (enzyme)
stoichiometry N [1]: 2

CCCC(=O)Oc1ccc([N+](=O)[O-])cc1 [PNP-butyrate]
Km (PttGSTF1 [2]): 360 ± 32.2 µM
Km (PttGSTF1 [3]): 1510 ± 120 µM

PttGSTF1 S13C (enzyme)
stoichiometry N [4]: 2

CCCCCC(O)/C=C/C=O (stereo not drawn) [HNE, 4-hydroxy-2-nonenal]
Km (PttGSTF1 [5]): 67.1 ± 6.6 µM

PttGSTF1 S13A (enzyme)
stoichiometry N [6]: 2

Source: publication PMC4274894, “The poplar Phi class glutathione transferase: expression, activity and structure of GSTF1” (Frontiers in Plant Science, 2014)
